In paper PMC8348300:

B1: 13NHT (structured_DNA)
DNA: GGTTGGTGTGGTTGG
modifications: T13: C5 NHS-carboxy-dT
B2: 5LTG (structured_DNA)
DNA: GGTTGGTGTGGTTGG
modifications: 5' Long Trebler dendrimer (three arms with terminal hydroxyls)
B3: 5TG (structured_DNA)
DNA: GGTTGGTGTGGTTGG
modifications: 5' Trebler dendrimer (three arms with terminal hydroxyls)
B4: 4NHT (structured_DNA)
DNA: GGTTGGTGTGGTTGG
modifications: T4: C5 NHS-carboxy-dT
B5: 413NHT (structured_DNA)
DNA: GGTTGGTGTGGTTGG
modifications: T4 and T13: C5 NHS-carboxy-dT
B6: TBA (native) (structured_DNA)
DNA: GGTTGGTGTGGTTGG

Key:
[1] = molecular target: T1, human alpha-thrombin (Homo sapiens, UniProt P00734;P00734 328-363;364-622); experiment: SPR; 10 mM KCl; text of 3.2 gives 97.5 nM; SPR (OpenSPR, immobilized thrombin): PBS, 0.005% Tween 20, 10 mM KCl, pH 7.4; TBA 1-16 uM (1-8 uM per Results), annealed 95 C 5 min then cooled to room temperat
[2] = molecular target: T1, human alpha-thrombin; experiment: SPR; 10 mM KCl; SPR (OpenSPR, immobilized thrombin): PBS, 0.005% Tween 20, 10 mM KCl, pH 7.4; TBA 1-16 uM (1-8 uM per Results), annealed 95 C 5 min then cooled to room temperat
[3] = molecular target: T1, human alpha-thrombin; experiment: SPR; 10 mM KCl; text of 3.2 gives 99 nM; SPR (OpenSPR, immobilized thrombin): PBS, 0.005% Tween 20, 10 mM KCl, pH 7.4; TBA 1-16 uM (1-8 uM per Results), annealed 95 C 5 min then cooled to room temperat
[4] = molecular target: T1, human alpha-thrombin; experiment: SPR; 10 mM KCl; text of 3.2 gives 99.8 nM; SPR (OpenSPR, immobilized thrombin): PBS, 0.005% Tween 20, 10 mM KCl, pH 7.4; TBA 1-16 uM (1-8 uM per Results), annealed 95 C 5 min then cooled to room temperat

Binder	Kd [2]	further results
B1	–	Kd [1]: 99.7 nM
B2	99.6 nM	–
B3	102 nM	–
B4	–	Kd [3]: 102 nM
B5	–	Kd [4]: 102 nM
B6	99.8 nM	–
